To fix the notation:
T1: soluble NKp80 ectodomain (NKp80-ED), biotinylated, used soluble or immobilized on streptavidin-coated … (human, UniProt Q9NZS2 64-231, biotinylated with BirA ligase at the BirA-tag ; Biotinylated by BirA ligase at the N-terminal BirA-tag (tag not in the letters). Used soluble or immobilized on streptavidin-coated microspheres. …)
T1 construct: Expressed in 293T cells from pSecTag2/HygroC; also called sNKp80-ED; imNKp80
T1 sequence: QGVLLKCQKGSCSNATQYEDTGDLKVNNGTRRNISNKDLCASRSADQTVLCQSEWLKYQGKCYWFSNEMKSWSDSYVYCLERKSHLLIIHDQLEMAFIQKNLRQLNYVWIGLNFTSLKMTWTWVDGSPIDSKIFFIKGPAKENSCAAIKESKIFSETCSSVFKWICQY

B1: NKp80-ED tetramers (biotinylated NKp80 ectodomain tetramerized with PE- or APC-labelled streptavidin) (receptor, not shown: large carriers; small tags and cut ends)
chain: T1 sequence
modifications: biotinylated with BirA ligase at the BirA-tag ; Biotinylated by BirA ligase at the BirA-tag. Tetramerized on phycoerythrin- or allophycocyanin-labelled streptavidin (four copies per streptavidin, carrier not in the letters).
notes: Same polypeptide as m1, tetramerized on labelled streptavidin before use; also called sNKp80-ED tetramers
B2: AICL (Activation-induced C-type Lectin), natural, on myeloid cells (U937, THP-1, monocytes, macrophages, granulocytes) or in their lysates (ligand)
chain: MMTKHKKCFIIVGVLITTNIITLIVKLTRDSQSLCPYDWIGFQNKCYYFSKEEGDWNSSKYNCSTQHADLTIIDNIEETNFLRRYKCSSDHWIGLKMAKNRTGQWVDGATFTKSFGMRGSEGCAYLSDDGAATARCYTERKWICRKRIH

The target of assay [1] is T1, soluble NKp80 ectodomain (NKp80-ED), …. Nature of the assay: flow cytometry, NKp80-ED tetramers on microsphere-immobilized NKp80-ED. (In general: Flow cytometry measures light scatter and fluorescence of single cells or particles in a stream.)
Assay [2] deals with B1. The assay can be described thus: flow cytometry, tetramers on U937 cells.

Take B1: the binding result in assay [1] is reported as “no binding”.

Regarding B2, the binding result in assay [2] is “binds”.

Source of the values: patent US20090191198A1 (EBERHARD KARLS UNIVERSITAT TUBINGEN, published 2009).
